Assay results from US20260242735A1 (UNIVERSIT T BASEL, published 2026).

B1: Refmab #6 (antibody, V domains shown)
VH: QVQLQQPGAEVVKPGASVKMSCKASGYTFTSYYIHWIKQTPGQGLEWVGVIYPGNDDISYNQKFQGKATLTADKSSTTAYMQLSSLTSEDSAVYYCAREVRLRYFDVWGQGTTVTVSS
VL: EIVLTQSPGSLAVSPGERVTMSCKSSQSVFFSSSQKNYLAWYQQIPGQSPRLLIYWASTRESGVPDRFTGSGSGTDFTLTISSVQPEDLAIYYCHQYLSSRTFGQGTKLEIK
notes: The alanine scan used IgG or Fab
B2: Refmab #6 (antibody, human IgG1, V domains shown)
VH: B1 VH
VL: B1 VL
B3: Refmab #5 (antibody, V domains shown)
VH: QVQLVQSGAEVKKPGASVKVSCKASGYTFTNYDINWVRQAPGQGLEWIGWIYPGDGSTKYNEKFKAKATLTADTSTSTAYMELRSLRSDDTAVYYCASGYEDAMDYWGQGTTVTVSS
VL: DIQMTQSPSSLSASVGDRVTINCKASQDINSYLSWFQQKPGKAPKTLIYRANRLVDGVPSRFSGSGSGQDYTLTISSLQPEDFATYYCLQYDEFPLTFGGGTKVEIK
notes: as for B1
B4: Refmab #5 (antibody, human IgG1, V domains shown)
VH: B3 VH
VL: B3 VL

Legend:
[1] = biological target: human CD33 T303A (human, UniProt P20138 18-364); assay: flow cytometry, HEK293-T, alanine scan;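 further: transiently transfected HEK293-T cells expressing single alanine mutants of human CD33 (alanine residues changed to serine), antibody binding fluorescence minus background, relative to wild type CD33, mean of duplicates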
Experimental: (§1) An alanine scan on human CD33 was performed to the determine the residues on CD33 that are involved in binding to the antibodies investigated. […] Briefly, a mutation library of CD33 was created by high-throughput, site-directed mutagenesis. Each residue was individually mutated to alanine, with alanine codons mutated to serine. The mutant library was arrayed in 384-well microplates and transiently transfected into HEK293-T. Following transfection, cells were incubated with the indicated antibodies (IgG or Fab) at concentrations pre-determined using an independent immunofluorescence titration curve on wild type CD33. […] Binding of each antibody to each mutant clone was determined in duplicates. For each point, background fluorescence was subtracted from the raw data, which were then normalized to antibody reactivity with wild type CD33.
(§2) Critical residues for antibody binding (outlined in dark grey) were residues whose mutations led to a binding of the test Abs of less than 20%. Additional secondary residues (outlined in light grey) were identified that led to a binding of the test Abs of between 20 and 40% as compared to the wild type CD33.

[2] = biological target: human CD33 S323A (human, UniProt P20138 18-364); assay: flow cytometry, HEK293-T, alanine scan;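 further: transiently transfected HEK293-T cells expressing single alanine mutants of human CD33 (alanine residues changed to serine), antibody binding fluorescence minus background, relative to wild type CD33, mean of duplicates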
Experimental: as §1, §2

[3] = biological target: human CD33 L343A (human, UniProt P20138 18-364); assay: flow cytometry, HEK293-T, alanine scan;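 further: transiently transfected HEK293-T cells expressing single alanine mutants of human CD33 (alanine residues changed to serine), antibody binding fluorescence minus background, relative to wild type CD33, mean of duplicates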
Experimental: as §1, §2

[4] = biological target: human CD33 C274A (human, UniProt P20138 18-364); assay: flow cytometry, HEK293-T, alanine scan;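 further: transiently transfected HEK293-T cells expressing single alanine mutants of human CD33 (alanine residues changed to serine), antibody binding fluorescence minus background, relative to wild type CD33, mean of duplicates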
Experimental: as §1, §2

[5] = biological target: human CD33 P308A (human, UniProt P20138 18-364); assay: flow cytometry, HEK293-T, alanine scan
Experimental: as §1, §2

[6] = biological target: human CD33 T299A (human, UniProt P20138 18-364); assay: flow cytometry, HEK293-T, alanine scan
Experimental: as §1, §2

[7] = biological target: human CD33 A341S (human, UniProt P20138 18-364); assay: flow cytometry, HEK293-T, alanine scan
Experimental: as §1, §2

[8] = biological target: human CD33 K315A (human, UniProt P20138 18-364); assay: flow cytometry, HEK293-T, alanine scan
Experimental: as §1, §2

[9] = biological target: human CD33 L271A (human, UniProt P20138 18-364); assay: flow cytometry, HEK293-T, alanine scan
Experimental: as §1, §2

[10] = biological target: human CD33 S314A (human, UniProt P20138 18-364); assay: flow cytometry, HEK293-T, alanine scan
Experimental: as §1, §2

[11] = biological target: human CD33 K309A (human, UniProt P20138 18-364); assay: flow cytometry, HEK293-T, alanine scan
Experimental: as §1, §2

[12] = biological target: human CD33 K288A (human, UniProt P20138 18-364); assay: flow cytometry, HEK293-T, alanine scan
Experimental: as §1, §2

[13] = biological target: human CD33 R296A (human, UniProt P20138 18-364); assay: flow cytometry, HEK293-T, alanine scan
Experimental: as §1, §2

[14] = biological target: human CD33 K313A (human, UniProt P20138 18-364); assay: flow cytometry, HEK293-T, alanine scan
Experimental: as §1, §2

[15] = biological target: human CD33 L275A (human, UniProt P20138 18-364); assay: flow cytometry, HEK293-T, alanine scan
Experimental: as §1, §2

[16] = biological target: human CD33 V332A (human, UniProt P20138 18-364); assay: flow cytometry, HEK293-T, alanine scan
Experimental: as §1, §2

[17] = biological target: human CD33 H317A (human, UniProt P20138 18-364); assay: flow cytometry, HEK293-T, alanine scan
Experimental: as §1, §2

[18] = biological target: human CD33 E321A (human, UniProt P20138 18-364); assay: flow cytometry, HEK293-T, alanine scan
Experimental: as §1, §2

[19] = biological target: human CD33 Y49Q (human, UniProt P20138 18-364); assay: flow cytometry on transfected cells, IgG
Experimental: as §1
(§3) Antibodies were screened for binding to the human CD33 variants in IgG format. […] For each mutation, background fluorescence was subtracted from the raw data, which were then normalized to antibody reactivity with wild-type CD33.

[20] = biological target: human CD33 Y49L (human, UniProt P20138 18-364); assay: flow cytometry on transfected cells, IgG
Experimental: as §1, §3

[21] = biological target: human CD33 I47W (human, UniProt P20138 18-364); assay: flow cytometry on transfected cells, IgG
Experimental: as §1, §3

[22] = biological target: human CD33 T42P (human, UniProt P20138 18-364); assay: flow cytometry on transfected cells, IgG
Experimental: as §1, §3

[23] = biological target: human CD33 Y50I (human, UniProt P20138 18-364); assay: flow cytometry on transfected cells, IgG
Experimental: as §1, §3

[24] = biological target: human CD33 Y50S (human, UniProt P20138 18-364); assay: flow cytometry on transfected cells, IgG
Experimental: as §1, §3

[25] = biological target: human CD33 I47E (human, UniProt P20138 18-364); assay: flow cytometry on transfected cells, IgG
Experimental: as §1, §3

[26] = biological target: human CD33 P48Q (human, UniProt P20138 18-364); assay: flow cytometry on transfected cells, IgG
Experimental: as §1, §3

[27] = biological target: human CD33 Y49D (human, UniProt P20138 18-364); assay: flow cytometry on transfected cells, IgG
Experimental: as §1, §3

[28] = biological target: human CD33 P46I (human, UniProt P20138 18-364); assay: flow cytometry on transfected cells, IgG
Experimental: as §1, §3

[29] = biological target: human CD33 Y50G (human, UniProt P20138 18-364); assay: flow cytometry on transfected cells, IgG
Experimental: as §1, §3

[30] = biological target: human CD33 Y49T (human, UniProt P20138 18-364); assay: flow cytometry on transfected cells, IgG
Experimental: as §1, §3

[31] = biological target: human CD33 F44E (human, UniProt P20138 18-364); assay: flow cytometry on transfected cells, IgG
Experimental: as §1, §3

[32] = biological target: human CD33 Y49S (human, UniProt P20138 18-364); assay: flow cytometry on transfected cells, IgG
Experimental: as §1, §3

[33] = biological target: human CD33 Y50L (human, UniProt P20138 18-364); assay: flow cytometry on transfected cells, IgG
Experimental: as §1, §3

[34] = biological target: human CD33 Y50R (human, UniProt P20138 18-364); assay: flow cytometry on transfected cells, IgG
Experimental: as §1, §3

[35] = biological target: human CD33 P48S (human, UniProt P20138 18-364); assay: flow cytometry on transfected cells, IgG
Experimental: as §1, §3

[36] = biological target: human CD33 Y49V (human, UniProt P20138 18-364); assay: flow cytometry on transfected cells, IgG
Experimental: as §1, §3

[37] = biological target: human CD33 I47Q (human, UniProt P20138 18-364); assay: flow cytometry on transfected cells, IgG
Experimental: as §1, §3

Sequence of human CD33 P308A (P20138 18-364 P308A limits assumed): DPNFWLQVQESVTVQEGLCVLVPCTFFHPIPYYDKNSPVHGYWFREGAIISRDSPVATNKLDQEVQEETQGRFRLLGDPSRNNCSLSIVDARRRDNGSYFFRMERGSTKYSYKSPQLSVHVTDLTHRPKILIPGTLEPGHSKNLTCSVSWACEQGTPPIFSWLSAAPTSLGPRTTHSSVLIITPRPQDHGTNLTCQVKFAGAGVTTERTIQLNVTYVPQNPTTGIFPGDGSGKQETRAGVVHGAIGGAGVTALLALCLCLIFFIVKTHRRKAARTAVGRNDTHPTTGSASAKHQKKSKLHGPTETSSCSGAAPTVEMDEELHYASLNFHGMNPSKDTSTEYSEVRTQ
Sequence of human CD33 Y50R (P20138 18-364 Y50R limits assumed): as the sequence (P20138 18-364 P308A limits assumed) above, with Y33R, A291P counted along it
Sequence of human CD33 C274A (P20138 18-364 C274A limits assumed): as the sequence (P20138 18-364 P308A limits assumed) above, with C257A, A291P counted along it
Sequence of human CD33 T299A (P20138 18-364 T299A limits assumed): as the sequence (P20138 18-364 P308A limits assumed) above, with T282A, A291P counted along it
Sequence of human CD33 Y49T (P20138 18-364 Y49T limits assumed): as the sequence (P20138 18-364 P308A limits assumed) above, with Y32T, A291P counted along it
Sequence of human CD33 Y49Q (P20138 18-364 Y49Q limits assumed): as the sequence (P20138 18-364 P308A limits assumed) above, with Y32Q, A291P counted along it
Sequence of human CD33 V332A (P20138 18-364 V332A limits assumed): as the sequence (P20138 18-364 P308A limits assumed) above, with A291P, V315A counted along it
Sequence of human CD33 K309A (P20138 18-364 K309A limits assumed): as the sequence (P20138 18-364 P308A limits assumed) above, with A291P, K292A counted along it
Sequence of human CD33 P48Q (P20138 18-364 P48Q limits assumed): as the sequence (P20138 18-364 P308A limits assumed) above, with P31Q, A291P counted along it
Sequence of human CD33 L275A (P20138 18-364 L275A limits assumed): as the sequence (P20138 18-364 P308A limits assumed) above, with L258A, A291P counted along it
Sequence of human CD33 L271A (P20138 18-364 L271A limits assumed): as the sequence (P20138 18-364 P308A limits assumed) above, with L254A, A291P counted along it
Sequence of human CD33 Y50L (P20138 18-364 Y50L limits assumed): as the sequence (P20138 18-364 P308A limits assumed) above, with Y33L, A291P counted along it
Sequence of human CD33 H317A (P20138 18-364 H317A limits assumed): as the sequence (P20138 18-364 P308A limits assumed) above, with A291P, H300A counted along it
Sequence of human CD33 Y49S (P20138 18-364 Y49S limits assumed): as the sequence (P20138 18-364 P308A limits assumed) above, with Y32S, A291P counted along it

Row | Binder | Mean % WT Binding [1] | Mean % WT Binding [2] | Mean % WT Binding [3] | Mean % WT Binding [4] | Mean % WT Binding [5] | Mean % WT Binding [6] | Mean % WT Binding [7] | Mean % WT Binding [8] | Mean % WT Binding [9] | Mean % WT Binding [10] | Mean % WT Binding [11] | Mean % WT Binding [12] | Mean % WT Binding [13] | Mean % WT Binding [14] | Mean % WT Binding [15] | Mean % WT Binding [16] | Mean % WT Binding [17] | Mean % WT Binding [18] | Mean % WT Binding [19] | Mean % WT Binding [20] | other results
1 | B1 | 95.5 % WT binding | 106 % WT binding | 101 % WT binding | 92.3 % WT binding | 103 % WT binding | 104 % WT binding | 89.6 % WT binding | 99.2 % WT binding | 106 % WT binding | 96.3 % WT binding | 98.8 % WT binding | 100 % WT binding | 102 % WT binding | 102 % WT binding | 94.6 % WT binding | 100 % WT binding | 95.2 % WT binding | 111 % WT binding |  |  | 
2 | B2 |  |  |  |  |  |  |  |  |  |  |  |  |  |  |  |  |  |  | 115 % WT binding | 97.9 % WT binding | Mean % WT Binding [21]: 114 % WT binding; Mean % WT Binding [22]: 9.3 % WT binding; Mean % WT Binding [23]: 118 % WT binding; Mean % WT Binding [24]: 122 % WT binding; Mean % WT Binding [25]: 122 % WT binding; Mean % WT Binding [26]: 111 % WT binding; Mean % WT Binding [27]: 117 % WT binding; Mean % WT Binding [28]: 98.5 % WT binding; Mean % WT Binding [29]: 115 % WT binding; Mean % WT Binding [30]: 121 % WT binding; Mean % WT Binding [31]: 102 % WT binding; Mean % WT Binding [32]: 102 % WT binding; Mean % WT Binding [33]: 108 % WT binding; Mean % WT Binding [34]: 96.9 % WT binding; Mean % WT Binding [35]: 97.2 % WT binding; Mean % WT Binding [36]: 121 % WT binding; Mean % WT Binding [37]: 107 % WT binding
3 | B3 | 82.4 % WT binding | 113 % WT binding | 77.8 % WT binding | 87.4 % WT binding | 73.5 % WT binding | 91.1 % WT binding | 113 % WT binding | 112 % WT binding | 84.9 % WT binding | 112 % WT binding | 85.7 % WT binding | 97.9 % WT binding | 99.5 % WT binding | 118 % WT binding | 86.4 % WT binding | 71.6 % WT binding | 71.9 % WT binding | 96.2 % WT binding |  |  | 
4 | B4 |  |  |  |  |  |  |  |  |  |  |  |  |  |  |  |  |  |  | 2.3 % WT binding | 0.8 % WT binding | Mean % WT Binding [21]: 90.8 % WT binding; Mean % WT Binding [22]: 13.9 % WT binding; Mean % WT Binding [23]: 2.5 % WT binding; Mean % WT Binding [24]: 5.3 % WT binding; Mean % WT Binding [25]: 89.1 % WT binding; Mean % WT Binding [26]: 2.1 % WT binding; Mean % WT Binding [27]: 1.7 % WT binding; Mean % WT Binding [28]: 100 % WT binding; Mean % WT Binding [29]: 5 % WT binding; Mean % WT Binding [30]: 0.5 % WT binding; Mean % WT Binding [31]: 97 % WT binding; Mean % WT Binding [32]: 0.5 % WT binding; Mean % WT Binding [33]: 1.7 % WT binding; Mean % WT Binding [34]: 47 % WT binding; Mean % WT Binding [35]: 43 % WT binding; Mean % WT Binding [36]: 0.9 % WT binding; Mean % WT Binding [37]: 94.6 % WT binding
